Test results reported in patent US20220227872A1 (LUDWIG INSTITUTE FOR CANCER RESEARCH, published 2022).
Each block holds one binder with its values, some of them ahead of it.

B2: human tumor endothelial marker 1 (TEM1) on cells (receptor)
chain: QDPWAAEPRAACGPSSCYALFPRRRTFLEAWRACRELGGDLATPRTPEEAQRVDSLVGAGPASRLLWIGLQRQARQCQLQRPLRGFTWTTGDQDTAFTNWAQPASGGPCPAQRCVALEASGEHRWLEGSCTLAVDGYLCQFGFEGACPALQDEAGQAGPAVYTTPFHLVSTEFEWLPFGSVAAVQCQAGRGASLLCVKQPEGGVGWSRAGPLCLGTGCSPDNGGCEHECVEEVDGHVSCRCTEGFRLAADGRSCEDPCAQAPCEQQCEPGGPQGYSCHCRLGFRPAEDDPHRCVDTDECQIAGVCQQMCVNYVGGFECYCSEGHELEADGISCSPAGAMGAQASQDLGDELLDDGEDEEDEDEAWKAFNGGWTEMPGILWMEPTQPPDFALAYRPSFPEDREPQIPYPEPTWPPPLSAPRVPYHSSVLSVTRPVVVSATHPTLPSAHQPPVIPATHPALSRDHQIPVIAANYPDLPSAYQPGILSVSHSAQPPAHQPPMISTKYPELFPAHQSPMFPDTRVAGTQTTTHLPGIPPNHAPLVTTLGAQLPPQAPDALVLRTQATQLPIIPTAQPSLTTTSRSPVSPAHQISVPAATQPAALPTLLPSQSPTNQTSPISPTHPHSKAPQIPREDGPSPKLALWLPSPAPTAAPTALGEAGLAEHSQRDDRWLLVALLVPTCVFLVVLLALGIVYCTRCGPHAPNKRITDCYRWVIHAGSKSPTEPMPPRGSLTGVQTCRTSV
notes: Endogenous on A673 and SK-N-AS cells, or full length hTEM1 ORF (NM_020404.3) in pTagGFP2-N transiently expressed in HEK293T cells; also called hTEM1; human TEM1
B3: murine tumor endothelial marker 1 (TEM1) on cells (receptor)
chain: QVPWTPEPRAACGPSSCYALFPRRRTFLEAWRACRELGGNLATPRTPEEAQRVDSLVGVGPANGLLWIGLQRQARQCQPQRPLRGFIWTTGDQDTAFTNWAQPATEGPCPAQRCAALEASGEHRWLEGSCTLAVDGYLCQFGFEGACPALPLEVGQAGPAVYTTPFNLVSSEFEWLPFGSVAAVQCQAGRGASLLCVKQPSGGVGWSQTGPLCPGTGCGPDNGGCEHECVEEVDGAVSCRCSEGFRLAADGHSCEDPCAQAPCEQQCEPGGPQGYSCHCRLGFRPAEDDPHRCVDTDECQIAGVCQQMCVNYVGGFECYCSEGHELEADGISCSPAGAMGAQASQDLRDELLDDGEEGEDEEEPWEDFDGTWTEEQGILWLAPTHPPDFGLPYRPNFPQDGEPQRLHLEPTWPPPLSAPRGPYHSSVVSATRPMVISATRPTLPSAHKTSVISATRPPLSPVHPPAMAPATPPAVFSEHQIPKIKANYPDLPFGHKPGITSATHPARSPPYQPPIISTNYPQVFPPHQAPMSPDTHTITYLPPVPPHLDPGDTTSKAHQHPLLPDAPGIRTQAPQLSVSALQPPLPTNSRSSVHETPVPAANQPPAFPSSPLPPQRPTNQTSSISPTHSYSRAPLVPREGVPSPKSVPQLPSVPSTAAPTALAESGLAGQSQRDDRWLLVALLVPTCVFLVVLLALGIVYCTRCGSHAPNKRITDCYRWVTHAGNKSSTEPMPPRGSLTGVQTCRTSV
notes: also called mTEM1; murine TEM1

What was measured:
[1] = molecular target: B3; assay: FACS, scFv-Fc 2 µg/ml on human and murine cell lines
Procedure: (§1) A673, human Ewing's sarcoma; SK-N-AS, human neuroblastoma; 2H11, murine tumor vascular endothelium; TC1, murine lung adenocarcinoma; HEK293-6E, human embryonic kidney; HT-1080, human fibrosarcoma; MDA-MB-231, human mammary carcinoma; MS1, murine pancreatic islet endothelium.
(§2) Adherent cells were detached using 10 mM EDTA, counted and resuspended in fresh, complete culture medium. All subsequent steps were performed on ice. […] After washing three times with FACS buffer, the secondary antibody, Alexa Fluor 647 AffiniPure Goat Anti-Human IgG (Jackson Immunoresearch, #109-605-098, 1:200 dilution) was added. Following incubation for 30 min the cells were washed again three times. Immediately before data acquisition, dead cells were stained with 4′,6-Diamidino-2-phenylindole (DAPI, 1:2000 dilution). Data was acquired using an LSR-II flow cytometer equipped with […] software (BD Biosciences). Data analysis and plotting were carried out using FlowJo v10 (FlowJo LLC).

[2] = molecular target: B2; assay: FACS on cell lines
Procedure: as §1, §2

[3] = molecular target: T1, anti-TEM1 scFv-Fc fusion 3B6; assay: FACS on cell lines
T1 construct: also called 3B6 scFv-Fc
Procedure: as §1, §2

[4] = molecular target: T1, anti-TEM1 scFv-Fc fusion 3B6; assay: FACS, scFv-Fc 2 µg/ml on human and murine cell lines
Procedure: as §1, §2

T1 sequence (VH, as listed by the source, chain 1 of 2): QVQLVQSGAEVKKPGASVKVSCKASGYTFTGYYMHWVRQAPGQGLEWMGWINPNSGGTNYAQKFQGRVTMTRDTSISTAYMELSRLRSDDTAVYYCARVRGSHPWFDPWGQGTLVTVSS
T1 sequence (VL, as listed by the source, chain 2 of 2): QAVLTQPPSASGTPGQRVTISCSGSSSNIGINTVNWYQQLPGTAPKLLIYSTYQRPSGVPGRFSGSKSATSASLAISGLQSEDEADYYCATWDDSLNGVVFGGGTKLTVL

- binding result [1]: binds
- binding result [2]: binds
B1: anti-TEM1 scFv-Fc fusion 2B11 (Fc fusion)
VH: EVQLVETGGGLVKPGGSLRLSCAASGFTFNTYTMNWVRQAPGKGLEWVSSISSSSTYIYYADSVKGRFTISRDNAKNSLYLQMNSLRAEDTAVYYCAKSIVGATHDAFDIWGQGTMVTVSS
VL: DIQMTQSPPTLSASVGDRVTITCRASQSISRWLAWYQQKPGKAPNLLIYDASNLQSGVPSRFSGSGSGTEFTLTISSLQPDDFGTYYCQQYKNYSPTFGQGTKLEIK
notes: also called 2B11 scFv-Fc

Binder: B2
- binding result [3]: binds

Binder: B3
- binding result [4]: binds
